From article PMC12103069 (2025)

Molecular target: UBE2L3 wild type (Mus musculus)
Assay: MST

Sequence of UBE2L3 wild type (Mus musculus) (B2R4A7 whole entry): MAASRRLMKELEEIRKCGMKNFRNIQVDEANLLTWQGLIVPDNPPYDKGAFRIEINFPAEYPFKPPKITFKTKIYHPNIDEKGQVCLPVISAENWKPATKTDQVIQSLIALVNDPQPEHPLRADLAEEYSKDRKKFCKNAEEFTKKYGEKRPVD

- Kd: 150 nM
B1: GST-MuRF1RM (MuRF1 amino acids 1-115, RING and MFC domains) (domain or fragment)
chain: MDYKSGLIPDGNAMENLEKQLICPICLEMFTKPVVILPCQHNLCRKCANDIFQAANPYWTNRGGSVSMSGGRFRCPSCRHEVIMDRHGVYGLQRNLLVENIIDIYKQECSSRPLQ
modifications: red fluorescent dye NT-647, covalently, by amine coupling (in the fluorescence assay only)
